Experimental findings from patent US20150183820A1 are described below.

Substitutions are numbered along the chain they refer to. Like-named read-outs stand apart in the source and are kept apart here.

Assay [1] concerns the target gamma-globulin derived from human serum (Wako Pharmaceuticals). Put plainly: pH gradient affinity chromatography, commercial comparison column.
The target in assay [2] is human immunoglobulin IgG. Put plainly: SPR, binder on SA chip, dissociation at pH 4.0, 1:1 Langmuir. (In general: Surface plasmon resonance follows binding to a sensor surface in real time, without labels.)
The target of assay [3] is human immunoglobulin IgG. Put plainly: SPR, binder on SA chip, 1 uM IgG, dissociation in 10 mM sodium acetate pH 4.0.
Assay [4] deals with IgG1 type humanized monoclonal antibody. Put plainly: pH gradient affinity chromatography, binder immobilized on streptavidin column.
Assay [5] has as its target ChromPure Human IgG, Fc Fragment (human). Put plainly: stepwise pH affinity chromatography, binder immobilized on streptavidin column.
In assay [6] the target is human immunoglobulin IgG. Put plainly: SPR, binder on SA chip, dissociation at pH 4.0.
Assay [7] has as its target IgG1 type humanized monoclonal antibody.
Assay [8] has the same target. Put plainly: SPR, IgG1 antibody amine-coupled on CM-5 chip, pH 7.4.
The target is the same in assay [9]. Put plainly: pH gradient affinity chromatography, SulfoLink immobilized column.
Assay [10] deals with human IgG3. The assay is described as above.
Assay [11] has as its target gamma-globulin derived from human serum (Wako Pharmaceuticals). Put plainly: pH gradient affinity chromatography, DSC-activated immobilized column.
Assay [12] has as its target IgG1 type humanized monoclonal antibody. Put plainly: SPR, IgG1 antibody amine-coupled on CM-5 chip (5000 RU), pH 7.4, 25 C, 1:1 Langmuir.
Assay [13] deals with human IgG3. Put plainly: pH gradient affinity chromatography, Epoxy-activated Sepharose 6B immobilized column.
The target of assay [14] is IgG1 type humanized monoclonal antibody. The description is as above.
The target of assay [15] is Fc region of human immunoglobulin (human). Put plainly: SPR, Fc on CM4 chip, pH 4.5, 1:1 Langmuir.
Assay [16] shares this target. Put plainly: SPR, Fc on CM5 chip, pH 7.4, 1:1 Langmuir.
Assay [17] shares this target. Put plainly: SPR, Fc on CM4 chip, pH 4.5.
The target is the same in assay [18]. Put plainly: SPR, Fc on CM5 chip, pH 7.4.

Consider “Sepharose 4 Fast Flow column (GE Healthcare)”, for which, in assay [1], the elution peak pH came to 3.2 pH.

B1: OXADac-PG01 (protein)
chain: MGAGTPVTAPLAGTIWKVLASEGQTVAAGEVLLILEAMKMETEIRAAQAGTVRGIAVKAGDAVAVGDTLMTLAGSGSDLYDDDDKGIITSLYKKAGSAAAPFTDTYKLILNGKTLKGETTTEAVDAATAEKVFKQYANDNGVDGEWTYDDATKTFTVTE
Take B1: the dissociation rate constant (koff) (usually a measure of how fast the partners let go of each other) with human immunoglobulin IgG [2] is 4.2e-05 s⁻¹. In addition, the ratio of the remaining amount of antibody by SPR sensorgram at pH 4.0 with human immunoglobulin IgG [3] was 99%. In addition, the value of the elution peak of antibody in pH-gradient chromatography in assay [4] was 3.18 pH. The recovery ratio of antibody in step-wise pH chromatography at pH 4.0 in assay [5] turned out to be 10%.

B2: OXADac-PG20 (designed binder)
chain: B1 chain with D125H, Q135H, D139E, N140H, D143H, E145H, D150P, A151E
Consider B2, for which, in the assay with human immunoglobulin IgG [3], the ratio of the remaining amount of antibody by SPR sensorgram at pH 4.0 came out at 58%. In [4], the elution pH difference against the wild-type (OXADac-PG01) was 1.1 pH points and the value of the elution peak of antibody in pH-gradient chromatography was found to be 4.29 pH. For the same molecule, in [5], the elution rate at pH 4 against the wild-type (OXADac-PG01) stood at 7 times and the recovery ratio of antibody in step-wise pH chromatography at pH 4.0 worked out at 71%.

B3: OXADac-PG07 (designed binder)
chain: B1 chain with D139E, N140H, D150P, A151E
In the assay with human immunoglobulin IgG [2], B3 returned a koff of 0.00011 s⁻¹. Besides, in the assay with human immunoglobulin IgG [3], the ratio of the remaining amount of antibody by SPR sensorgram at pH 4.0 is 93%.

B4: OXADac-PG13 (designed binder)
chain: B1 chain with D139E, N140H, D143H, D150P, A151E
B4 gave an off-rate constant (koff) with human immunoglobulin IgG [2] of 0.06 s⁻¹. Moreover, in the assay with human immunoglobulin IgG [3], the ratio of the remaining amount of antibody by SPR sensorgram at pH 4.0 came out at 64%. In assay [4], this molecule gave a value of the elution peak of antibody in pH-gradient chromatography of 3.56 pH.

B5: OXADac-PG16 (designed binder)
chain: B1 chain with T120I, D139E, N140H, D150P, A151E
B5 registered a dissociation rate constant (koff) with human immunoglobulin IgG [2] of 0.00013 s⁻¹. Further, in the assay with human immunoglobulin IgG [3], the ratio of the remaining amount of antibody by SPR sensorgram at pH 4.0 turned out to be 94%.

B6: OXADac-PG19 (designed binder)
chain: B1 chain with Q135H, D139E, N140H, D143H, E145H, D150P, A151E
In the assay with human immunoglobulin IgG [6], B6 registered an increase of the dissociation rate constant against the wild-type (OXADac-PG01) (orders of magnitude) of 3 and a percent of adsorbed IgG dissociated at pH 4.0 of 60%. Moreover, the dissociation rate constant (koff) with human immunoglobulin IgG [2] was found to be 0.27 s⁻¹. For the same molecule, the ratio of the remaining amount of antibody by SPR sensorgram at pH 4.0 with human immunoglobulin IgG [3] came to 38%. For the same molecule, in assay [4], the value of the elution peak of antibody in pH-gradient chromatography is 4.04 pH. Besides, in assay [5], the elution rate at pH 4 against the wild-type (OXADac-PG01) worked out at 7 times and the recovery ratio of antibody in step-wise pH chromatography at pH 4.0 was 88%.

B7: OXADac-PG15 (designed binder)
chain: B1 chain with T114R, D139E, N140H, D150P, A151E
B7 yielded a koff in the assay with human immunoglobulin IgG [2] of 0.00044 s⁻¹. Moreover, the ratio of the remaining amount of antibody by SPR sensorgram at pH 4.0 in the assay with human immunoglobulin IgG [3] was 90%.

B8: OXADac-PG17 (designed binder)
chain: B1 chain with T114R, T120I, D139E, N140H, D150P, A151E
With B8, in the assay with human immunoglobulin IgG [2], the koff was determined as 0.032 s⁻¹. The ratio of the remaining amount of antibody by SPR sensorgram at pH 4.0 with human immunoglobulin IgG [3] was 86%. In [4], this molecule yielded a value of the elution peak of antibody in pH-gradient chromatography of 3.27 pH.

B9: OXADac-PG14 (designed binder)
chain: B1 chain with D139E, N140H, E145H, D150P, A151E
In the assay with human immunoglobulin IgG [2], B9 showed a koff of 0.04 s⁻¹. The ratio of the remaining amount of antibody by SPR sensorgram at pH 4.0 with human immunoglobulin IgG [3] came to 71%.

B10: CGB19H-3D (designed binder)
chain: MAYYDPETGTWYSGGRDTYKLILNGKTLKGETTTEAVDAATAEKVFKHYANEHGVHGHWTYDPETKTFTVTERPEVIDASELTPAVDTYKLILNGKTLKGETTTEAVDAATAEKVFKHYANEHGVHGHWTYDPETKTFTVTERPEVIDASELTPAVDTYKLILNGKTLKGETTTEAVDAATAEKVFKHYANEHGVHGHWTYDPETKTFTVTERPEVIDASELTPAVGGGGCHHHHHH
Regarding B10, the elution peak pH in assay [7] came out at 4.3 pH; in assay [9] it was 4.3 pH; with human IgG3 [10], 5.2 pH; in assay [11], 3.6 pH; with human IgG3 [13] it was 4.9 pH. The molecule further came in with an avidity improvement against the single domain-type M-PG19 in assay [8] of 190 fold. In addition, the difference of the dissociation rate constants against M-PG19 in assay [8] was 370 times. Besides, the dissociation constant Kd – broadly, the equilibrium constant for the complex coming apart – in assay [12] was 0.1 nM.

B11: CGB01H-3D (protein)
chain: MAYYDPETGTWYSGGRDTYKLILNGKTLKGETTTEAVDAATAEKVFKQYANDNGVDGEWTYDDATKTFTVTERPEVIDASELTPAVDTYKLILNGKTLKGETTTEAVDAATAEKVFKQYANDNGVDGEWTYDDATKTFTVTERPEVIDASELTPAVDTYKLILNGKTLKGETTTEAVDAATAEKVFKQYANDNGVDGEWTYDDATKTFTVTERPEVIDASELTPAVGGGGCHHHHHH
Regarding B11, the elution peak pH is 3.3 pH in assay [14] and 3.4 pH in the assay with human IgG3 [13].

B12: M-PG07 (designed binder)
chain: MDTYKLILNGKTLKGETTTEAVDAATAEKVFKQYANEHGVDGEWTYDPETKTFTVTE
As to B12, the figures for the Kd in [15] and in assay [16] were 230 nM and 290 nM, respectively.

B13: M-PG19 (designed binder)
chain: B12 chain with Q33H, D41H, E43H
In the case of B13, the affinity in the acidic region against M-PG01 in assay [17] is 0.6 times. Further, the avidity in the neutral region against M-PG01 in assay [18] came to 11 times. The Kd is 1000 nM in [15], 43 nM in [16] and 19 nM in assay [12].
